B1: 43 (protein)
chain: LFQEYQCYGSSSNTRVLNELNYDNAGTNLYNELEMNYYGKQENWYSLKKNSRSLGENDDGNNEDNEKLRKPKHKKLKQPADGNPDPNANPNVDPN
modifications: bait human Fc-tagged dimer
B2: 23 (protein)
chain: ENVDTFKCNYAKKKKNGHHIKRHITNDEEKKKEYSFLMLGKENEEENKENKENNQNVNKDNNDNNNNEKKNEEQNHNNEKKQEEVINNNNNNVENKKEEENHNNDKKTDEQNHVNEKKQEGENNKHKKDDTIPPEKKINKENLLEYGTHDKEGHFIPSYKTLTDEILSTNNAMEKASSFLKIACSHVMKLIEFIPESKLSSQYIKVDNKNIYLKDIAVECQNIYFNLEKFSMTLIVFNSKINKFIYSQEK
modifications: bait human Fc-tagged dimer
B3: 58 (protein)
chain: IQLHSVNYAPLNYIEIGDTLSNKVGELWHSHLNSFIDIVSTKVVNKLEDDLSNGNNLEKFMILLEDDADIFDASAYEGKNLALIQTEFIRKLKDKFKNSKFGQKLKKLGSKAKEKLLSLYQKHKGKLRHFFSILLKSLVIPIAVQFIRKNLNKWKQRTLEATQKLDEQSKNIAQPIINRLYNSFEDKIEEYSQENKINVEDELNALGQLDKDKQDIQKLEEQEKALLQ
modifications: bait human Fc-tagged dimer
B4: 49 (protein)
chain: SDSYSTGGNEKEKIFMDNYKYMWTYIYFLQKRIMMKKLSHPLYMSKKFILLHNPKDIEEFRIPLKDTLWSYVDRNSIKGFININLDSIFDIDLKEYYVHDKENMANSEKSEDLECIDAYVQKTNEIYYNMADTKDEAYIFICKKCKHIYKDIKECREKSMQLMIQNMKITVPQIRLKYDKKNRNNEEIIINIPVTYVLSNLLSSLKKTVTYNTDDLNNACNVLIKMLHLDLLKILYNLQYHNGIFNGITEKYLIEFRNIFVKRQKTNTEDNNDMIWEECFVLKKSIDKIMNINSFLLTKSRNRYMDYLQNRRKRYRDILFMITYNVADMNLNTYIKSIYNYIHISTKIIEDIQYIYNQEVYATFFVRTELIETYLLRNPKQLKNTCSIYIMITISWFFNQINIGMYNKNKNVYDLFKEKFSKSNVKQIINSIYTNNVENKANILQICNDAMTNTIELIKKVIKNYYKQNNVLSNYNINFAGLIKFIDIQILRMKFIQSTLEKQPLIEYDTLNDDHLNNDAIIKRENMVCMMKYISNKINTYISLLKKSDLQTIMLQNYDKYNIYLDTYFTHNENVFFCSSPGQYLIIKIFFYSFFNILNIYG
modifications: bait human Fc-tagged dimer
B5: 42 (protein)
chain: QLRFASLGDWGKDTKGQILNAKYFKQFIKNERVTFIVSPGSNFIDGVKGLNDPAWKNLYEDVYSEEKGDMYMPFFTVLGTRDWTGNYNAQLLKGQGIYIEKNGETSIEKDADATNYPKWIMPNYWYHYFTHFTVSSGPSIVKTGHKDLAAAFIFIDTWVLSSNFPYKKIHEKAWNDLKSQLSVAKKIADFIIVVGDQPIYSSGYSRGSSYLAYYLLPLLKDAEVDLYISGHDNNMEVIEDNDMAHITCGSGSMSQGKSGMKNSKSLFFSSDIGFCVHELSNNGIVTKFVSSKKGEVIYTHKLNIKKKKTLDKVNALQHFAALPNVELTDVPSSGP
modifications: bait human Fc-tagged dimer
B6: 68 (protein)
chain: LIRNSNTPQAFLIPELNNNEKNEFNNNEKNEMNNNLNNEFNNNEENCDIQKIAEEMMENLLNENDMYTNIMLSLQNRLSDDYLCSEPKYENICIHEKDKISLSFPCSNPKYEKLIHKFTFKKLCNSKAAFNNALLKSFIEEDEEQNTFSLMLKQFKILLTCVDDELKDIYKESIDLLVDLKTSITELTQKLWSGKMVNVLKKREFLITGILCELRNGNKAPLISKSLEFENLGILKMNNEELLNEAYNAFSDYYYFFPYFIQKLLEKGGMIERLIKIHENLAKYRTKDMVNKINAQSKGEVLNNEDILNKLNAYKHYTKHGATSFIQSREVKIVNQNVNNDDTTKNQQQNVNNNEKLNNNNNNNNNQQVNNNNNNNNQQVNNNNNNNNNQVNNNNNNNNNQVNNNNYNNNNQVNNNNNNNQQVNNNNNYNNQLNNNNFNNNLQVNKNDKHVPKNNHATATHTNNILYNPLYSINPEKPKDIIKLLKDLIKYLHIVKFENNEPTTNIDEEGIRKLLENSFFDLNDDILIVRLLLKPQTVILTVIQSFMLMTPSPSRDAKAYCKKALINDQLVPTNDANILSEENELVNNFATKYVLIYEKMKLQELKEMEESKLKMKYSKTNLAALQVTNPQNNKDKNDASNKNNNPNNAATPLIAVVTDLSGEKTEDIINNNVDIATLSVGVQNTFQGP
modifications: bait human Fc-tagged dimer
B7: ADP148 (protein)
chain: MASWIGAVILPLLGLLLSLPAGADVKARSCGEVRQAYGAKGFSLADIPYQEIAGEHLRICPQEYTCCTTEMEDKLSQQSKLEFENLVEETSHFVRTTFVSRHKKFDEFFRELLENAEKSLNDMFVRTYGMLYMQNSEVFQDLFTELKRYYTGGNVNLEEMLNDFWARLLERMFQLINPQYHFSEDYLECVSKYTDQLKPFGDVPRKLKIQVTRAFIAARTFVQGLTVGREVANRVSKVSPTPGCIRALMKMLYCPYCRGLPTVRPCNNYCLNVMKGCLANQADLDTEWNLFIDAMLLVAERLEGPFNIESVMDPIDVKISEAIMNMQENSMQVSAKVFQGCGQPKPAPALRSARSAPENFNTRFRPYNPEERPTTAAGTSLDRLVTDIKEKLKLSKKVWSALPYTICKDESVTAGTSNEEECWNGHSKARYLPEIMNDGLTNQINNPEVDVDITRPDTFIRQQIMALRVMTNKLKNAYNGNDVNFQDTSDESSGSGSGSGCMDDVCPTEFEFVTTEAPAVDPDRREVDSS
modifications: bait human Fc-tagged dimer
B8: ADP382 (protein)
chain: TYDDGICKSSDCIKSAARLIQNMDATTEPCTDFFKYACGGWLKRNVIPETSSRYGNFDILRDELEVVLKDVLQEPKTEDIVAVQKAKALYRSCINESAIDSRGGEPLLKLLPDIYGWPVATENWEQKYGASWTAEKAIAQLNSKYGKKVLINLFVGTDDKNSVNHVIHIDQPRLGLPSRDYYECTGIYKEACTAYVDFMISVARLIRQEERLPIDENQLALEMNKVMELEKEIANATAKPEDRNDPMLLYNKMTLAQIQNNFSLEINGKPFSWLNFTNEIMSTVNISITNEEDVVVYAPEYLTKLKPILTKYSARDLQNLMSWRFIMDLVSSLSRTYKESRNAFRKALYGTTSETATWRRCANYVNGNMENAVGRLYVEAAFAGESKHVVEDLIAQIREVFIQTLDDLTWMDAETKKRAEEKALAIKERIGYPDDIVSNDNKLNNEYLELNYKEDEYFENIIQNLKFSQSKQLKKLREKVDKDEWISGAAVVNAFYSSGRNQIVFPAGILQPPFFSAQQSNSLNYGGIGMVIGHEITHGFDDNGRNFNKDGDLVDWWTQQSASNFKEQSQCMVYQYGNFSWDLAGGQHLNGINTLGENIADNGGLGQAYRAYQNYIKKNGEEKLLPGLDLNHKQLFFLNFAQVWCGTYRPEYAVNSIKTDVHSPGNFRIIGTLQNSAEFSEAFHCRKNSYMNPEKKCRVW
modifications: bait human Fc-tagged dimer
B9: ADP309 (protein)
chain: MEAPAAGLFLLLLLGTWAPAPGSASSEAPPLINEDVKRTVDLSSHLAKVTAEVVLAHLGGGSTSRATSFLLALEPELEARLAHLGVQVKGEDEEENNLEVRETKIKGKSGRFFTVKLPVALDPGAKISVIVETVYTHVLHPYPTQITQSEKQFVVFEGNHYFYSPYPTKTQTMRVKLASRNVESYTKLGNPTRSEDLLDYGPFRDVPAYSQDTFKVHYENNSPFLTITSMTRVIEVSHWGNIAVEENVDLKHTGAVLKGPFSRYDYQRQPDSGISSIRSFKTILPAAAQDVYYRDEIGNVSTSHLLILDDSVEMEIRPRFPLFGGWKTHYIVGYNLPSYEYLYNLGDQYALKMRFVDHVFDEQVIDSLTVKIILPEGAKNIEIDSPYEISRAPDELHYTYLDTFGRPVIVAYKKNLVEQHIQDIVVHYTFNKVLMLQE
modifications: bait human Fc-tagged dimer
B10: ADP362 (protein)
chain: MARAALWLWLCALALSLQPALPQIVATNLPPEDQDGSGDDSDNFSGSGAGALQDITLSQQTPSTWKDTQLLTAIPTSPEPTGLEATAASTSTLPAGEGPKEGEAVVLPEVEPGLTAREQEATPRPRETTQLPTTHLASTTTATTAQEPATSHPHRDMQPGHHETSTPAGPSQADLHTPHTEDGGPSATERAAEDGASSQLPAAEGSGEQDFTFETSGENTAVVAVEPDRRNQSPVDQGATGASQGLLDRKEVLG
modifications: bait human Fc-tagged dimer
B11: ADP378 (protein)
chain: PAPGRPPTHNAHNWRLGQAPANWYNDTYPLSPPQRTPAGIRYRIAVIADLDTESRAQEENTWFSYLKKGYLTLSDSGDKVAVEWDKDHGVLESHLAEKGRGMELSDLIVFNGKLYSVDDRTGVVYQIEGSKAVPWVILSDGDGTVEKGFKAEWLAVKDERLYVGGLGKEWTTTTGDVVNENPEWVKVVGYKGSVDHENWVSNYNALRAAAGIQPPGYLIHESACWSDTLQRWFFLPRRASQERYSEKDDERKGANLLLSASPDFGDIAVSHVGAVVPTHGFSSFKFIPNTDDQIIVALKSEEDSGRVASYIMAFTLDGRFLLPETKIGSVKYEGIEFI
modifications: bait human Fc-tagged dimer
B12: ADP313 (protein)
chain: MAHLHHSCLCFRSWLPAMLAVLLSLAPSASSDISASRPNILLLMADDLGIGDIGCYGNNTMRTPNIDRLAEDGVKLTQHISAASLCTPSRAAFLTGRYPVRSGMVSSIGYRVLQWTGASGGLPTNETTFAKILKEKGYATGLIGKWHLGLNCESASDHCHHPLHHGFDHFYGMPFSLMGDCARWELSEKRVNLEQKLNFLFQVLALVALTLVAGKLTHLIPVSWMPVIWSALSAVLLLASSYFVGALIVHADCFLMRNHTITEQPMCFQRTTPLILQEVASFLKRNKHGPFLLFVSFLHVHIPLITMENFLGKSLHGLYGDNVEEMDWMVGRILDTLDVEGLSNSTLIYFTSDHGGSLENQLGNTQYGGWNGIYKGGKGMGGWEGGIRVPGIFRWPGVLPAGRVIGEPTSLMDVFPTVVRLAGGEVPQDRVIDGQDLLPLLLGTAQHSDHEFLMHYCERFLHAARWHQRDRGTMWKVHFVTPVFQPEGAGACYGRKVCPCFGEKVVHHDPPLLFDLSRDPSETHILTPASEPVFYQVMERVQQAVWEHQRTLSPVPLQLDRLGNIWRPWLQPCCGPFPLCWCLREDDPQ
modifications: bait human Fc-tagged dimer
B13: ADP152 (protein)
chain: MAPSSPRPALPALLVLLGALFPGPGNAQTSVSPSKVILPRGGSVLVTCSTSCDQPKLLGIETPLPKKELLLPGNNRKVYELSNVQEDSQPMCYSNCPDGQSTAKTFLTVYWTPERVELAPLPSWQPVGKNLTLRCQVEGGAPRANLTVVLLRGEKELKREPAVGEPAEVTTTVLVRRDHHGANFSCRTELDLRPQGLELFENTSAPYQLQTFVLPATPPQLVSPRVLEVDTQGTVVCSLDGLFPVSEAQVHLALGDQRLNPTVTYGNDSFSAKASVSVTAEDEGTQRLTCAVILGNQSQETLQTVTIYSFPAPNVILTKPEVSEGTEVTVKCEAHPRAKVTLNGVPAQPLGPRAQLLLKATPEDNGRSFSCSATLEVAGQLIHKNQTRELRVLYGPRLDERDCPGNWTWPENSQQTPMCQAWGNPLPELKCLKDGTFPLPIGESVTVTRDLEGTYLCRARSTQGEVTRKVTVNVLSP
modifications: bait human Fc-tagged dimer

Target: FGFR4 ectodomain (Homo sapiens, UniProt P22455)
Test: AVEXIS normalised luminescence

Going from B1 to B2, the binding score falls from 1.37 to 0.913.

Compared with B3, B4 is higher in binding score: 0.979 for the first, 0.996 for the second.

First: B5
Second: B6
The binding score of the first is higher: 1.51 for the first, 0.952 for the second.

Target: Circumsporozoite protein (CSP) (Plasmodium falciparum (isolate 3D7), UniProt Q7K740)
Test: AVEXIS screen signal:noise (double-corrected)

Compared with B7, B8 is lower in binding score: 0.913 for the first, 0.577 for the second.

Going from B9 to B10, the binding score falls from 1.06 to 0.594.

Compared with B11, B12 is lower in binding score: 1.3 for the first, 0.959 for the second.

In the case of B13, the binding score is reported as 1.23.
